# Test results from patent US20240034757A1 (OXFORD UNIVERSITY INNOVATION, published 2024).
# T1: CCL24_HUMAN (human, UniProt O00175 27-104)
# T1 sequence: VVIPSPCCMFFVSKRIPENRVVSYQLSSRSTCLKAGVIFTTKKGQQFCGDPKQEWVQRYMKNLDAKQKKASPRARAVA
# T2: CCL16_HUMAN (human, UniProt O15467 24-120)
# T2 sequence: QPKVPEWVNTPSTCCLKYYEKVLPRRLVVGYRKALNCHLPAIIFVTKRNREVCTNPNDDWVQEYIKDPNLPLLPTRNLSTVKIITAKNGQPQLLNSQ
# T3: CCL23_HUMAN (human, UniProt P55773 22-120)
# T3 sequence: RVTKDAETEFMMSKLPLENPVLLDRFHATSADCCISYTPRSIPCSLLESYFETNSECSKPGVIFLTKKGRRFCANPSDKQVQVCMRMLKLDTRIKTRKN
# T4: CCL14_HUMAN (human, UniProt Q16627 22-93)
# T4 sequence: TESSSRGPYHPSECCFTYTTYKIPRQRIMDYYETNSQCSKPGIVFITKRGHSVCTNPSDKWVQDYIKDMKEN
# T5: CCL1_HUMAN (human, UniProt P22362 24-96)
# T5 sequence: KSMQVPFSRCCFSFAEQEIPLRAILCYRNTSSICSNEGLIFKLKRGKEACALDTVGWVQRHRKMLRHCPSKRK
# T6: CCL22_HUMAN (human, UniProt O00626 25-93)
# T6 sequence: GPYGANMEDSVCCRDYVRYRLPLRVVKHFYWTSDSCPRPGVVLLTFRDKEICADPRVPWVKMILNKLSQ
# T7: CCL17_HUMAN (human, UniProt Q92583 24-94)
# T7 sequence: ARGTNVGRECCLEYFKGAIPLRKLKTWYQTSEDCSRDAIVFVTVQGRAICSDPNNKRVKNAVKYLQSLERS
# T8: CCL27_HUMAN (human, UniProt Q9Y4X3 25-112)
# T8 sequence: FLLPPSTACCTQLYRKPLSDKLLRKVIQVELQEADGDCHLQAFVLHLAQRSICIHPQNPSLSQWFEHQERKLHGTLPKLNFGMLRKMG
# T9: CCL8_HUMAN (human, UniProt P80075 24-99)
# T9 sequence (looked up): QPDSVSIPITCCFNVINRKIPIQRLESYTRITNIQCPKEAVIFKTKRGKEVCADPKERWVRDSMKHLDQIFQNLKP
# T10: CCL18_HUMAN (human, UniProt P55774 21-89)
# T10 sequence: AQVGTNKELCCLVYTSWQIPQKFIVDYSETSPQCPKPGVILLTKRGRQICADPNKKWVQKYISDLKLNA
# T11: CCL4L1_HUMAN (human, UniProt Q8NHW4 24-92)
# T11 sequence: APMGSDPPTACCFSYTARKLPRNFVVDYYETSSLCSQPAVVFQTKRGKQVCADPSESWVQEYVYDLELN
# T12: CCL3_HUMAN (human, UniProt P10147 24-92)
# T12 sequence: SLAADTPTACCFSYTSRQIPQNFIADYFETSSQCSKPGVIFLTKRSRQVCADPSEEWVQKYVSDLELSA
# T13: CCL4_HUMAN (human, UniProt P13236 24-92)
# T13 sequence: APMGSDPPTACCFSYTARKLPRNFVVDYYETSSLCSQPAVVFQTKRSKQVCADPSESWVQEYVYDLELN
# T14: CCL5_HUMAN (human, UniProt P13501 24-91)
# T14 sequence: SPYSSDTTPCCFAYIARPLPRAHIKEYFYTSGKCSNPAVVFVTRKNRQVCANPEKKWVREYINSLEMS
# T15: CCL15_HUMAN (human, UniProt Q16663 22-113)
# T15 sequence: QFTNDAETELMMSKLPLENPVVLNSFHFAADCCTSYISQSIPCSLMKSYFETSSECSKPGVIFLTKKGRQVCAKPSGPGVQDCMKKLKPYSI
# T16: CCL19_HUMAN (human, UniProt Q99731 22-98)
# T16 sequence: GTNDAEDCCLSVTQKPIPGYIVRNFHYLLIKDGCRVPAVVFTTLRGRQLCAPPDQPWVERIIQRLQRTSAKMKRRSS
# T17: CCL3L1_HUMAN (human, UniProt P16619 24-93)
# T17 sequence: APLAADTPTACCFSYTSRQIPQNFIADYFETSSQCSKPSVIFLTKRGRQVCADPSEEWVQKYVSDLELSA
# What was measured:
# Experiment in all cases: BLI
# [1] = molecular target: T1, CCL24_HUMAN
# [2] = molecular target: T2, CCL16_HUMAN
# [3] = molecular target: CCL13_HUMAN (human, UniProt Q99616 24-98)
# Sequence of CCL13_HUMAN (Q99616 24-98 limits assumed): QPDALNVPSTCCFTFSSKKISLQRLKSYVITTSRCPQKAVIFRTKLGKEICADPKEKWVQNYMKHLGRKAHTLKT
# [4] = molecular target: T3, CCL23_HUMAN
# [5] = molecular target: T4, CCL14_HUMAN
# [6] = molecular target: CCL20_HUMAN (human, UniProt P78556 27-96)
# Sequence of CCL20_HUMAN (P78556 27-96 limits assumed): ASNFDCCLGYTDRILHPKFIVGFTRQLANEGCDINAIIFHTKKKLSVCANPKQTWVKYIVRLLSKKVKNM
# [7] = molecular target: T5, CCL1_HUMAN
# [8] = molecular target: T6, CCL22_HUMAN
# [9] = molecular target: T7, CCL17_HUMAN
# [10] = molecular target: CCL2_HUMAN (human, UniProt P13500 24-99)
# Sequence of CCL2_HUMAN (P13500 24-99 limits assumed): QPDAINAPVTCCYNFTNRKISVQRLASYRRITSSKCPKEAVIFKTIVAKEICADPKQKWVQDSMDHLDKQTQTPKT
# [11] = molecular target: T8, CCL27_HUMAN
# [12] = molecular target: T9, CCL8_HUMAN
# [13] = molecular target: T10, CCL18_HUMAN
# [14] = molecular target: T11, CCL4L1_HUMAN
# [15] = molecular target: T12, CCL3_HUMAN
# [16] = molecular target: T13, CCL4_HUMAN
# [17] = molecular target: T14, CCL5_HUMAN
# [18] = molecular target: T15, CCL15_HUMAN
# [19] = molecular target: T16, CCL19_HUMAN
# [20] = molecular target: T17, CCL3L1_HUMAN
# 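Further: biolayer interferometry of evasin binding to chemokines, poorly fitted curves (R² under 0.9) discarded, every experiment run three or more times.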
Binder,Kd [1] [nM],RT [1] [min],Kd [2] [nM],RT [2] [min],Kd [3] [nM],RT [3] [min],Kd [4] [nM],RT [4] [min],Kd [5] [nM],RT [5] [min],binding result [6],Kd [7] [nM],RT [7] [min],Kd [8] [nM],RT [8] [min],Kd [9] [nM],RT [9] [min],Kd [10] [nM],RT [10] [min],Kd [11] [nM],also measured
"P1156:G4S:P991 (designed binder, also called two-warhead evasin) ADDDNELFTVQYCGMNCTKDEGGTWTGCTGKKEGCKCYHESGKNYGLCLSTEYTDFSQYGNPSDSEIEAAKPKRSDTLSHGGGGSENGEGTTQPDYDNSTDYYNYEDFKCTCPAPHLNNTNGTVMKPIGCYYTCNVTRCTAPDTYPCYNLTEHQAKNLTTSPTTLCAVGNCDHGICVPNGTKELCFKAPNLEE",3.58,6.75,0.503,92.5,0.207,221,7,28.5,0.664,159,no binding,16.6,2.01,2.18,15.8,7.44,8.6,32.1,3.25,36.2,RT [11]: 3.4 min; Kd [12]: 7.45 nM; RT [12]: 15.3 min; Kd [13]: 0.201 nM; RT [13]: 182 min; Kd [14]: 1.28 nM; RT [14]: 33.8 min; Kd [15]: 1.89 nM; RT [15]: 38.2 min; Kd [16]: 3.55 nM; RT [16]: 26.6 min; Kd [17]: 0.754 nM; RT [17]: 103 min; Kd [18]: 166 nM; RT [18]: 0.66 min; binding result [19]: no binding; Kd [20]: 3.09 nM; RT [20]: 34.7 min
P991:G4S:P1156 (designed binder) ENGEGTTQPDYDNSTDYYNYEDFKCTCPAPHLNNTNGTVMKPIGCYYTCNVTRCTAPDTYPCYNLTEHQAKNLTTSPTTLCAVGNCDHGICVPNGTKELCFKAPNLEEGGGGSADDDNELFTVQYCGMNCTKDEGGTWTGCTGKKEGCKCYHESGKNYGLCLSTEYTDFSQYGNPSDSEIEAAKPKRSDTLSH,3.18,8.52,0.636,72.4,0.176,276,5.13,35.2,0.835,135,no binding,7.66,4.13,2.36,15.6,5.8,11.6,24.8,4.02,42.6,RT [11]: 2.91 min; Kd [12]: 7.89 nM; RT [12]: 16.6 min; Kd [13]: 0.143 nM; RT [13]: 293 min; Kd [14]: 1.24 nM; RT [14]: 38.3 min; Kd [15]: 2.22 nM; RT [15]: 37.1 min; Kd [16]: 3.54 nM; RT [16]: 28.1 min; Kd [17]: 0.947 nM; RT [17]: 92 min; Kd [18]: 127 nM; RT [18]: 0.87 min; binding result [19]: no binding; Kd [20]: 2.91 nM; RT [20]: 43.8 min
